Data reported in article PMC6294517.

Target: T1, SSBP1 (single-stranded DNA-binding protein 1, mitochondrial) (UniProt Q04837 17-148)
T1 sequence: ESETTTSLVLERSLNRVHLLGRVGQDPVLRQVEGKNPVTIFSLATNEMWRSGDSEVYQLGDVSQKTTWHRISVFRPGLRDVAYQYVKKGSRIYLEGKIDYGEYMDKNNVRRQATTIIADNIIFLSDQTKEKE
Experiment: fluorescence anisotropy

B1: 5x 6mA fluorescent probe (PG491/PG493) (dsDNA)
DNA 1: TATTTAACCTAAATTTCTATAAGATTATTAGTATAAAAGGG
DNA 2: CCCTTTTATACTAATAATCTTATAGAAATTTAGGTTAAATA
modifications: N6-methyldeoxyadenosine at strand 1 positions 19, 24, 27, 30, 33
B1: binds.
